The labels stand for the following.
B1: IMPI-059 (antibody, V domains shown)
VH: EVQLVESGGGLIQPGGSLRLSCAASGFTVSSIYMSWVRQAPGKGLEWVSIIYSRGSTDYADSVKGRFTISRDISKNTLYLQMNSLRAEDTAVYYCARDGTMVRGVHAFDIWGQGTMVTVSS
VL: DIQMTQSPPSLSASIGDRVTITCQASQDISNYLNWYQQKPGKAPKLLIYDASNLETGVPSRFSGSGSGTDFTLTISNLQPEDIVTYYCQQYDNLPSSFGQGTKLEIK
B2: IMPI-054 (antibody, V domains shown)
VH: EVQLVESGGGLIQPGGSLRLSCAASGLTVSSNYMSWVRQAPGKGLEWVSIIYSGGSTYYADSVKGRFTISRDNSKNTLYLQMNSLRAEDTAVYYCARLGGYYYYGMDVWGQGTTVTVSS
VL: DIQMTQSPSSLSASVGERVTITCQASQDIRNYLNWYQKKPGKAPKLLIYDSSNLETGVPSRFSGSGSGTDFTFTISSLQPEDIATYYCQQYDNLPITFGQGTRLEIK
B3: IMPI-042 (antibody, V domains shown)
VH: B2 VH
VL: B2 VL with S65G
B4: IMPI-029 (antibody, V domains shown)
VH: EVQLVESGGGLIQPGGSLRLSCAASGVTVSSNYMNWVRQAPGKGLEWVSVIYSGGSTYYADSVKGRFTISRDNSKNTLFLQMNSLRAEDSAVYYCARDLGPYGVDVWGQGTTVTVSS
VL: DIQLTQSPSFLSASVGDRVTITCWASQGISSYLAWYQQKPGKAPKLLIYAASTLQSGVPSRFSGSGSGTEFTLTISSLQPEDFATYYCQELNSYPLTFGQGTRLEIK
B5: IMPI-052 (antibody, V domains shown)
VH: B4 VH with W47G, S56T, F79Y, S90T, L99T, G100V, P101V, V104M
VL: B4 VL with A50T, E90Q, Q100G, R103K, L104V
B6: IMPI-017 (antibody, V domains shown)
VH: B4 VH with S25A, V27L, A40V, F79Y, S90T, P101T, Y102L, V104M
VL: B4 VL with S31T, E90Q, P95L, L96P, R103K, L104V
B7: IMPI-047 (antibody, V domains shown)
VH: B4 VH with V27F, F79Y, A87T, S90T, G100V, P101A, V104M
VL: B4 VL with L46V, E90L, Y94N, Q100G, R103K, L104V
B8: IMPI-037 (antibody, V domains shown)
VH: not shown
VL: B4 VL with S30N, A84T, E90Q, L91F, S93D, L96R, Q100P, R103K, L104V
B9: IMPI-002 (antibody, V domains shown)
VH: B4 VH with N35S, W47G, F79Y, S90T, L99T, G100V, P101V, V104M
VL: B4 VL with E90Q, Q100G, R103K, L104V
B10: IMPI-005 (antibody, V domains shown)
VH: B4 VH with V27F
VL: B4 VL
B11: IMPI-056 (antibody, V domains shown)
VH: B4 VH with V27L, G44K, Y58F, K64R
VL: B4 VL with E90Q
B12: IMPI-021 (antibody, V domains shown)
VH: B4 VH with N35S, Y58F, F79Y, S90T, G100S, P101Y, V104M
VL: B4 VL with R61K, E90Q, L96C, T97S, R103K
B13: IMPI-055 (antibody, V domains shown)
VH: QVQLVQSGAEVKKPGASVKVSCKASGYTFTSYDINWVRQATGQGLEWMGWMNPNSGNTGYAQKFQGRVTMTRDTSINTAYMELSSLRSEDTAVYFCARGGRYCSDVTCYSGEPFDYWGQGTLVTVSS
VL: EIMLTQSPDFQSVTPKEKVTITCRASQSIGSSLHWYQQKPDQSPKLLIKFASQSISGVPSRFSGSGSGTDFTLTINSLEAEDAAAYYCHQSSSLPHTFGPGTKVEIK
B14: IMPI-022 (antibody, V domains shown)
VH: EVQLVESGGGLVQPGRSLRLSCAASGFTFDDYAMHWVRQAPGKGLEWVSGITWNSGSIGYADSVKGRFTISRDNAKNSLYLHMNSLRVEDTALYYCAKDLQGDYYYYGVDVWGQGTTVTVSS
VL: AIQLTQSPSSLSASVGDRVTITCRASQGISSALAWYQQKPGKAPKLLLYDASSLVSGVPSRFSGSRSGTDFTLTISSLQPEDFATYYCQQFISYPLTFGGGTRVEIK
B15: IMPI-017 (antibody, V domains shown)
VH: B4 VH with S25A, V27L, A40V, F79Y, S90T, P101T, Y102L, V104M
VL: B4 VL with S31T, E90Q, P95L, L96P, R103K, L104V
B16: IMPI-029 (antibody, V domains shown)
VH: B4 VH
VL: B4 VL
B17: IMPI-047 (antibody, V domains shown)
VH: B4 VH with V27F, F79Y, A87T, S90T, G100V, P101A, V104M
VL: B4 VL with L46V, E90L, Y94N, Q100G, R103K, L104V
B18: IMPI-037 (antibody, V domains shown)
VH: not shown
VL: B4 VL with S30N, A84T, E90Q, L91F, S93D, L96R, Q100P, R103K, L104V
B19: IMPI-005 (antibody, V domains shown)
VH: B4 VH with V27F
VL: B4 VL
B20: IMPI-021 (antibody, V domains shown)
VH: B4 VH with N35S, Y58F, F79Y, S90T, G100S, P101Y, V104M
VL: B4 VL with R61K, E90Q, L96C, T97S, R103K
B21: IMPI-006 (antibody, V domains shown)
VH: QLQLQESGPGLVKPSETLSLTCTVSGGSISNSNYYWGWIRQPPGKGLEWIGSIYYSGRTYYNPSLKSRVTISVDTSKNQFSLKLSSVTAADTAVYYCARMGLLWFGEFYGMDVWGQGTTVTVSS
VL: DIQMTQSPSSLSASVGDRVTITCRASQGISSWLAWYQQKPEKAPKSLIYDASSLQRGVPSRFSGSGSGTDFTLTISSLQPEDFASYYCQQYNSYPLTFGGGTRVEIK
B22: YANG-1119 (antibody, V domains shown)
VH: EVQLVESGGGLVKPGGSLRLSCAASGFTFSSYSMNWVRQAPGKGLEWVSSISTGSSYIFYADSVKGRFTISRDNAKNSLYLQMNSLRAEDTAVYYCAKTGDLPFFDYWGQGTLVTVSS
VL: QSALTQPASVSGSPGQSITISCTGTSSDVGRYNYVSWYQQHPGKAPKLMIYEVSNRPSGVSNRFSGSKSGNTASLTISGLQAEDEADYYCSSYTSSSTMVFGGGTKLTVL
B23: YANG-1116 (antibody, V domains shown)
VH: B22 VH with A23E, T28N, S30R, S33A, M34L, Y80S
VL: B22 VL with S91I
B24: YANG-1117 (antibody, V domains shown)
VH: B22 VH with M34V, A97V
VL: B22 VL with S26R, S54T, S95N, S96N
B25: YANG-1115 (antibody, V domains shown)
VH: B22 VH
VL: B22 VL with T108S
B26: YANG-1113 (antibody, V domains shown)
VH: B22 VH with I70M, L113P
VL: B22 VL
B27: YANG-1118 (antibody, V domains shown)
VH: B22 VH with S33A, M34L, N77H, Y80S
VL: B22 VL with S91I
B28: YANG-1114 (antibody, V domains shown)
VH: B22 VH with Q3H, G8V
VL: B22 VL
B29: YANG-1112 (antibody, V domains shown)
VH: QITLKESGPTLVKPTQTLTLTCTFSGFSLSTGGVAVGWIRQPPGKALEWLAIIYWDDDKRYSPSLKSRLTITKDTSKNQVVLTMTNMDPVDTATYYCAHWGKDSFDIWGQGTMVTVSS
VL: SYELTQPPSVSVSPGQTARITCSGDALPRKYAYWYQQKSGQAPVLVIYEDNNRPSGIPERFSGSSSGTTATLTVSGAQVEDEADYYCYSTDTSGYVVFGGGTKLTVL

Numbering of substitutions follows the chain as printed.

Consider 29 molecules from patent US20250026813A1 (published 2025).

The target of the first assay is RBD domain of the spike protein of SARS-CoV-2 virus (Acro Biosystems SPD-C52H3) (SARS-CoV-2, UniProt P0DTC2 319-537).
Test: not given
Usually IC50 stands for the midpoint of a concentration-inhibition curve. The molecule B1 had an IC50 of 2.02 nM.

For the molecule B2, the midpoint of inhibition, the IC50, lay at 2.28 nM.

B3: the half-maximal inhibitory concentration (IC50) is 5.54 nM.

Regarding B4, it took 1.26 nM to reach half-maximal inhibition (IC50).

B5 yielded an IC50 of 4.85 nM.

With B6, the IC50 is 0.832 nM.

B7 registered an IC50 of 3.36 nM.

B8: the IC50 was 7.76 nM.

Consider B9, for which the IC50 came out at 8.15 nM.

In turn, B10 had an IC50 of 3.18 nM. This IC50 is about 2.6-fold lower than that of the molecule before.

B11: the IC50 was determined as 1.93 nM.

With B12, the midpoint of inhibition, the IC50, lay at 4.87 nM. Against the preceding molecule, the IC50 is about 2.5-fold higher.

The molecule B13 came in with an IC50 of 3.39 nM. The IC50 values of the last two molecules are within 1.5-fold of each other.

The target in another assay is SARS-CoV-2 spike protein N-terminal domain (NTD) (SARS-CoV-2, UniProt P0DTC2 14-305).
Test: not given
As a reminder, the Kd is the constant that tells how readily two partners part at equilibrium. Low readings indicate higher affinity, high ones lower affinity. Consider B14, for which the Kd came to 603 nM.

Take B15: the Kd was determined as 1050 nM.

Turning to B16, the Kd is 219 nM.

The molecule B17 yielded a Kd of 2320 nM.

Another assay addresses SARS-CoV-2 spike protein receptor binding domain (RBD) (SARS-CoV-2, UniProt P0DTC2 319-541).
Test: not given
On to B15, for which the Kd came to 2.25 nM. In other words, the single-digit nanomolar range.

B18 displayed a Kd of 22.3 nM.

The molecule B19 returned a Kd of 24.9 nM.

In the case of B16, the affinity, expressed as Kd, was 0.446 nM.

In the case of B20, binding was characterised by a dissociation constant (Kd) of 14.7 nM.

In the case of B17, binding was characterised by a dissociation constant (Kd) of 6.65 nM.

On to B21, for which the Kd turned out to be 191 nM. This Kd is about 29-fold higher than that of the molecule before.

The next assay has as its target T1, RBD domain of the spike protein of SARS-CoV-2 virus (Acro Biosystems SPD-C52H3) (SARS-CoV-2, UniProt P0DTC2 319-537).
T1 construct: domain: RBD domain
The assay can be described thus: Affinity (SPR) by Octet; antigen not named, taken from the epitope column.
Take B22: the Kd was less than 0.1 nM.

B23 returned a Kd of less than 0.1 nM.

As to B24, the Kd is less than 0.1 nM.

For the molecule B25, the Kd was less than 0.1 nM.

For the molecule B26, the Kd was less than 0.1 nM.

As for B27, the Kd is less than 0.1 nM.

As to B28, the Kd was less than 0.1 nM.

Turning to B29, the Kd was less than 0.1 nM.
